Experimental data published in patent publication US20110189084A1, “Method for Treating Liver Disorders with Receptor Associated Protein (RAP) Peptide-Fucosidase Inhibitor Conjugates” (RAPTOR PHARMACEUTICAL INC., priority 2010, published 2011).
Blank lines part the entries; values can stand above or below the molecule they belong to. Bridge positions count the residues as written; N and C are the ends. Ends that are not written are not given here.

Tests used:
[1] = biological target: T1, human liver alpha-L-fucosidase (Homo sapiens, UniProt P04066); conditions: ref [12]; cited from earlier work
T1 sequence (P04066 32-466): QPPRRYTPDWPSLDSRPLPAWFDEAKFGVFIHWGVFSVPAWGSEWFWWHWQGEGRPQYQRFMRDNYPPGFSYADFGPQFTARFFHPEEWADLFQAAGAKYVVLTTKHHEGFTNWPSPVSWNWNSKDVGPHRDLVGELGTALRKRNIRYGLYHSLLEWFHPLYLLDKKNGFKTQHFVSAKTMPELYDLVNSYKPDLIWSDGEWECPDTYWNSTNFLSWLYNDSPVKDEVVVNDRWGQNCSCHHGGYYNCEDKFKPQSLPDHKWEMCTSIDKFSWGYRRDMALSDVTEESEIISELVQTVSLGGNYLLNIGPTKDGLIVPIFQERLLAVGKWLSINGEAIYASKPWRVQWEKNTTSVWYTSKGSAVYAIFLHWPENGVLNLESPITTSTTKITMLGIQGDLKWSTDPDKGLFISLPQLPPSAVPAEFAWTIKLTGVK

[2] = biological target: T2, lysosomal fucosidase (Homo sapiens, UniProt P04066); assay: fucosidase activity in lysates of treated HepG2 cells (4-MU-fucopyranoside); assay type: cell-based; conditions: 72 hours, versus buffer
T2 construct: Fucosidase activity in 20 μL of each lysate sample was measured; endogenous in cells; host or cells: HepG2
T2 sequence (P04066 32-466): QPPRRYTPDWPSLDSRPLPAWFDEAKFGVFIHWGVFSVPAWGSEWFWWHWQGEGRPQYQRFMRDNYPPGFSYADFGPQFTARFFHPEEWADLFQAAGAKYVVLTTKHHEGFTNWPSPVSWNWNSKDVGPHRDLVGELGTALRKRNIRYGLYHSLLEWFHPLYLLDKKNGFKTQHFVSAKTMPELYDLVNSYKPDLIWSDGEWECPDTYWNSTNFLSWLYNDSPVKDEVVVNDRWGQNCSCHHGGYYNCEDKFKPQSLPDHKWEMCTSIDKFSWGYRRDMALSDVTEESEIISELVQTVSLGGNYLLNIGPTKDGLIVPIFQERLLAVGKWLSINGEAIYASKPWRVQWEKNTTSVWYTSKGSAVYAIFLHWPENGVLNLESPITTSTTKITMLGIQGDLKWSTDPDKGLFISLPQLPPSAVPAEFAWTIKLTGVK
Experimental: HepG2 human hepatocellular carcinoma cells were seeded in 6-well tissue culture plates at 4×10^5 per well. […] Cells were then washed with cold PBS, scraped into a microfuge tube, pelleted and lysed. Total protein concentration was determined by Bradford assay for each sample and lysate volumes adjusted to 0.3 mg/mL. Fucosidase activity in 20 μL of each lysate sample was measured by adding 100 μL of 0.5 mM 4-MU-fucopyranoside with subsequent incubation at 37° C. for 30 minutes. Reactions were quenched with 130 μL of 600 mM citrate/carbonate buffer at pH 9. Released 4-MU was assayed in a fluorescence microplate reader (see Example 1 above). […] Duplicate sample activity values were averaged and plotted.

[3] = cited from earlier work
[4] = intravenously administered, rodent and feline species; cited from earlier work
[5] = biological target: T3, LRP1 (Homo sapiens, UniProt Q07954); conditions: read-out: affinity for LRP1; cited from earlier work
T3 sequence (Q07954 786-1165 limits assumed): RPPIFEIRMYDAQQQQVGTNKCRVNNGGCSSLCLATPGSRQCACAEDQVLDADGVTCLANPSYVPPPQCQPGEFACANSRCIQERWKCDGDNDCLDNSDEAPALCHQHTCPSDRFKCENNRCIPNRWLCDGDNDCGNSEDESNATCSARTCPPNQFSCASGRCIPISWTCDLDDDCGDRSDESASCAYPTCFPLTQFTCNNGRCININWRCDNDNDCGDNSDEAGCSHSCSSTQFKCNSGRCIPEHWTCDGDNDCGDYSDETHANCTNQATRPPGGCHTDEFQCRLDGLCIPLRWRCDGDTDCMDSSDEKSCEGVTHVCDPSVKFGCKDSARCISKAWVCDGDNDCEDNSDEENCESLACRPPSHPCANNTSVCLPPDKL

Molecule: CCCCN1C[C@H](O)[C@@H](O)[C@H](O)[C@H](C(=O)O)C1 [Faz, (3R,4R,5S,6S)-1-butyl-4,5,6-trihydroxyazepane-3-carboxylic acid]
potency of fucosidase inhibition [1]: low nanomolar range

inhibition at 30 µM [2]: > 50%
Molecule: C[C@@H]1NC[C@@H](O)[C@H](O)[C@@H]1O [L-deoxyfuconojirimycin]

Molecule: RAP: mature receptor associated protein, 323 amino acid peptide, SEQ ID NO: 1
circulating half-life ([3]; injected RAP, intravenous): less than a minute
exogenous RAP accumulating in the liver ([3]; intravenous bolus injection of 30 picomoles, within 10 minutes): over 70%
accumulation in heart, brain, muscle or kidney ([3]; intravenous): < 1 % of injected dose
toxicity [4]: no measurable toxicity

Molecule: mRAP14c: RAP residues 250-309 with substitutions F250C, L308G and Q309C (CEAKIEKHNHYQKQLEIAHEKLRHAESVGDGERVSRSREKHALLEGRTKELGYTVKKHGC; disulfide 1-60 (inferred))
Kd [5]: ~21 nM

B1: mRAPc: RAP d3 with the modifications A242G, R314G, E241C and I315C (peptide)
chain: CGFREELKHFEAKIEKHNHYQKQLEIAHEKLRHAESVGDGERVSRSREKHALLEGRTKELGYTVKKHLQDLSGGC
Kd [5]: ~10 nM
